From publication PMC6908968 (Cell, 2019)
Read-outs that look alike come from different tables or passages of the source.

Tests used:
[1] = target: T1, EBOV GP ectodomain residues 1-636 (GPec) (Zaire ebolavirus, strain  …, UniProt Q05320)
[2] = target: T2, thermolysin-cleaved EBOV GP on Jurkat-GP cells (cleaved GP) (Zaire ebolavirus, Makona (GP1 core …, strain))
T2 chain 1: not shown
T2 chain 2: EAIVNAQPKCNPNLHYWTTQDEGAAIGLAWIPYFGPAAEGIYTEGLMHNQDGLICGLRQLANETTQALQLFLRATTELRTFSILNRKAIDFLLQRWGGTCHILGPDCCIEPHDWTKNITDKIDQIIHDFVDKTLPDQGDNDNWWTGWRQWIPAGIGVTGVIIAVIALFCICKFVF

[3] = target: EBOV glycoprotein (GP), Makona strain, full length mature, on Jurkat-GP cells (native GP) (Zaire ebolavirus, Makona (stand-in: …, UniProt P87666, strain))
[4] = target: T1, EBOV GP ectodomain residues 1-636 (GPec); assay: ELISA; details: both partners purified

B1: 5.6.c3105 (antibody, V domains shown)
VH: EEQLVESGGDLVQPGGSLRLSCAASGFTFRSYDMYWVRQVTGKGLEWVSVIGAGGDTYYSDAVKGRFTISRENAKNSLYLQMNNLRAGDTAVYYCARSFGFLYGFDVWGHGTTVTVSS
VL: ENVLTQSPGTLSLSPGERATLSCRASQSISSKYFAWYQHKPGQAPRVLIYAASSRATGVPDRFSGSGSGTDFTLTISRLEPEDFAVYYCQQYDSSPITFGQGTRLEIK
- binding result [1]: binds
- binding result [2]: binds
- binding result [3]: binds

B2: 9.1.c2296 (antibody, V domains shown)
VH: QVQLVESGGGVVHPGRSLRLSCAASGFTFSTYGMHWVRQAPGKGLEWVAVISYDGTNKYYADSVKGRFTTSRDNSKNTLYLQMNSLRAEDTAVYYCAKGEAYYDILTGNIDMWGQGTMVTVSS
VL: DIQMTQSPSTLSASVGDRVTITCRASQSISYWLAWYQQKPGKAPKVLIYDVSSLESGVPSRFSGSGSETEFTLTISSLQPDDFATYYCQQYHSYPLTFGGGTKVEIK
- binding result [1]: binds
- binding result [2]: binds

B3: 9.1.c1533 (antibody, V domains shown)
VH: QVQLQESGPGLVKPSGTLSLTCTVSGGSISSNNWWSWVRQSPGKGLEWIGEIYHSGSTNYNPSLKSRVTISVDKSKNQFSLKVSSVTAADTAVYYCARGDQLIYYFDYWGQGTLVTVSS
VL: QSALTQPASVSGSPGQSITISCTGSSSDVGVYDFVSWYQQHPGKAPKLMIYEVSNRPSGVSNRFSGSKSGNTASLTISGLQAEDEANYYCSSYTSSITNVVFGGGTKLTVL
- binding result [1]: binds
- binding result [2]: binds

B4: mAb 5.1.10B3 (antibody, V domains shown)
VH: EVQLVESGGGLVQPGGSLRLSCAASGFTFRSYDMHWVRQATGKGLEWVSAIGTAGDTYYPGSVKGRFTISRENAKNSLYLQMNSLRAEDTAVYYCARVRFGDTAVDYWGQGTLVTVSS
VL: DIQMTQSPSSLSASVGDRVTITCRASQSISSFLNWHQQKPGKAPKLLIYAASSLQSGVPSRFSGSGSGTDFTLTISSLQPEDFAIYYCQQSYISPFTFGPGTKVDIK
- binding result [4]: binds

B5: mAb 2.1.6C11 (antibody, V domains shown)
VH: GAEVKKPGASVKVSCKASGYTFTTYDINWVRQATGQGLEWMGWMNPNSGNTGYAQKFQGRVTMTRNTSISTAYMELRSLRSEDTAVYYCAPGVTFWGQGTLVTVSS
VL: PSSLSAPVGDRVTITCRASQGISNSLAWFQQKPGKAPKSLIYAASSLQSGVPSNFSGSGSGTDFTLTISSLQPEDFATYYCQQYNSYPWTFGQGTKVEIK
- binding result [4]: binds

B6: 9.1.c1617 (antibody, V domains shown)
VH: QVQFVESGGGLVKPGGSLRLSCTTSGFTFSDYYMSWIRQAPGKGLEWVSYISRSGNIIYYPDSVKGRFTISRDNAKNSLYLQMNSLRVEDTAVYYCAGGVQRGYNYYYYGMYVWGQGITVTVSS
VL: DIVMTQSPLSLPVTPGEPASISCRSSQSLLHSNGYNYLDWYLQRPGQSPQLLIYLGSNRASGVPDRFSGSGSGTDFTLKISRVEAEDFGFYYCMQALQTPYTFGQGTKLEIR
- binding result [1]: binds
- binding result [2]: binds

B7: 9.1.c1965 (antibody, V domains shown)
VH: QVQLVQSGAEVKKPGASVKVSCKASGYTFTRYGINWVRQAPGQGLEWMGWISAYNGHTSYAQKLQGRVTMTTDTSTSTAYMELSSLRSDDTAVYYCARDAGMVRPYYFDYWGQGTLVTVSS
VL: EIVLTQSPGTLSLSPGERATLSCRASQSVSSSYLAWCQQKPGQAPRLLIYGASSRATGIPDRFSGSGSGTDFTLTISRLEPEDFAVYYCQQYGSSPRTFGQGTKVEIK
- binding result [1]: binds
- binding result [2]: binds

B8: 9.1.c1853 (antibody, V domains shown)
VH: EVQLVQSGAEVKKPGESLRISCKGSGNSFSSYWISWVRQKPGKGLEWMGRIDPSDSYTSYSPSFQGHVTISADKTNSTAYLQWSGLKASDTAVYYCAREVAGEEIFYYYYMDVWGKGTPVTVSS
VL: EIVLTQSPVTLSLSPGEKATLSCRASQSVISSYLVWYQQKPGQAPRLLIYGASNRASGIPDRFSGSGSGTDFTLTISRLEPEDFAVYYCQLYGSLPRWTFGQGTEVQIK
- binding result [1]: binds
- binding result [2]: binds

B9: 5.6.c3363 (antibody, V domains shown)
VH: EVKLVESGGDLIQPGGSLRLSCAGSGFTFSNYAMSWVRQAPGKGLEWVSGLSGSGRNTYYADSVKGRFTISRDNSQNTLFLQMNSLRAEDTAIYYCATASVWSGYVLQYWGQGALVIVSS
VL: DIQMTQSPSSLSASVGDRVTITCRASQNINDWLAWYQQKPGKAPKLLIFRASSLESGVPSRFSGSGFGTEFTLTISSLQPDDFASYYCQQYKSYPMYTFGQGTKLDIN
- binding result [1]: binds
- binding result [2]: binds
- binding result [3]: binds
